Reference: paper PMC10197130, “Disulfide-Bond-Induced Structural Frustration and Dynamic Disorder in a Peroxiredoxin from MAS NMR” (Journal of the American Chemical Society, 2023)

Experiments:
Tsa1 S78D mutant (yeast) = assay: SEC; size-exclusion chromatography of the S78D mutant (Figure S2C)
[1] = target: the molecule itself; assay: methyl-detected diffusion-ordered NMR spectroscopy (DOSY); solution, deuterated Ile/Leu/Val methyl-labeled sample, series from 25 to 60 °C; temperatures above the midpoint at ca. 315 K
[2] = target: the molecule itself; assay: SEC-MALS; Superdex Increase 200 10/300 GL, phosphate buffer (PBS or 50 mM KPi KCl pH 7.4), RT (ca. 297 K); decamer also reinjected alone, with TCEP and after H2O2 treatment

Row | Molecule | stoichiometry N (Tsa1 S78D mutant (yeast)) | stoichiometry N [1] | stoichiometry N [2]
1 | Tsa1 S78D mutant (enzyme) | 2 | – | –
2 | Tsa1 wild type (2-Cys peroxiredoxin from yeast) (enzyme, UniProt P34760 1-196, looked up, disulfide bond between Cys47 (CP) of one subunit and Cys170 (CR) of another subunit in the oxidized state (as purified or after H2O2); free thiols in the reduced state (TCEP or DTT), Tsa1, 2-Cys peroxiredoxin from yeast, wild type, plasmid pET19b-Tsa1 corresponding to UniProt entry P34760, codon-optimized; No removal of the His tag is described; Decamer of five dimers (ca. 216 kDa) at ambient temperature; also called Tsa1^WT; Tsa1^ox; source: E. coli BL21(DE3), purified (Ni2+-HisTrap, gel filtration on Superdex S200 increase); copies: 10) MVAQVQKQAPTFKKTAVVDGVFDEVSLDKYKGKYVVLAFIPLAFTFVCPTEIIAFSEAAKKFEEQGAQVLFASTDSEYSLLAWTNIPRKEGGLGPINIPLLADTNHSLSRDYGVLIEEEGVALRGLFIIDPKGVIRHITINDLPVGRNVDEALRLVEAFQWTDKNGTVLPCNWTPGAATIKPTVEDSKEYFEAANK | – | 2 | 10
